Experiment [1] concerns the target FGFR1 expressed on FDCP cells. Briefly: cell-based or functional assay.
Experiment [2] concerns the target FGFR3IIIc expressed on FDCP cells. Briefly: cell-based or functional assay.

EC50 (effective concentration), mitogenicity on FGFR-transfected FDCP cells data for two substances are collected here from patent US20050148511A1.

Turning to FGF2(3,5Q)-N111G (ligand), the EC50 (effective concentration), mitogenicity on FGFR-transfected FDCP cells in experiment [1] was 0.35 to 1 ng/mL; in experiment [2] it was 0.3 to 0.65 ng/mL.

On to “wild type FGF-2 (from UniProt P09038 1-155) (ligand)”, for which the EC50 (effective concentration), mitogenicity on FGFR-transfected FDCP cells stood at 2.65 ng/mL in experiment [1] and 4.2 ng/mL in experiment [2].
